Experimental data published in article PMC6144819 (Nucleic Acids Research, 2018).

Molecular target: T1, Drosophila SUMO-TRAX (WT) (Drosophila, UniProt Q9VF77 1-298)
T1 sequence (looked up): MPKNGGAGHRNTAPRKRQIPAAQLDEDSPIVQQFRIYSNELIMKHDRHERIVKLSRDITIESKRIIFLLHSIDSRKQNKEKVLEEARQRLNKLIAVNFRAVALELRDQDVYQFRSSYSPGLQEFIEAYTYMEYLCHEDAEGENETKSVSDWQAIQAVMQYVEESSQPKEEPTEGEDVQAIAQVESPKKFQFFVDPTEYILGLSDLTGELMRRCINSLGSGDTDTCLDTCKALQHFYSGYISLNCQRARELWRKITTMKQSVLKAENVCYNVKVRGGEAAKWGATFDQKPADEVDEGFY
Assay: cryo-EM structure

stoichiometry N: 1 TRAX per Translin (4:4)
B1: Drosophila Translin (natural protein, UniProt Q7JVK6 1-235, looked up)
chain: MSNFVNLDIFSNYQKYIDNEQEVRENIRIVVREIEHLSKEAQIKLQIIHSDLSQISAACGLARKQVELCAQKYQKLAELVPAGQYYRYSDHWTFITQRLIFIIALVIYLEAGFLVTRETVAEMLGLKISQSEGFHLDVEDYLLGILQLASELSRFATNSVTMGDYERPLNISHFIGDLNTGFRLLNLKNDGLRKRFDALKYDVKKIEEVVYDVSIRGLSSKEKDQQEEPAVPATE
